Reference: US5853721A, “Antibody to interleukin-12 receptor” (Hoffmann-La Roche Inc., priority 1995, dated 1998)

Tests used:
[1] = molecular target: T1, detergent solubilized IL-12R from Kit 225/K6 cells (Homo sapiens, UniProt P42701); test: 125I-IL-12 binding to detergent solubilized IL-12R immunoprecipitated by immobilized 2*4E6; conditions: proteins immunoprecipitated by immobilized 2*4E6 from solubilized K6 cell extracts; read-out: apparent affinity of 125I-IL-12, single site
T1 construct: were solubilized with 8 mM CHAPS extraction buffer; endogenous in cells; host or cells: Kit 225/K6 cells, CHAPS extract
Description: FIG. 8A: Kit 225/K6 cells (1.5×10^8 cells/ml) were solubilized with 8 mM CHAPS extraction buffer and the cell extract (0.2 ml) was immunoprecipitated for 16 hrs at 4° C. with mAb 2*4E6 immobilized on goat anti-mouse IgG coupled to agarose as discussed below. Following this incubation, the beads were pelleted, washed and resuspended in IP buffer containing ^125 I-IL-12 at concentrations ranging from 7 pM to […]. The IL-12R immobilized on the 2*4E6 coated beads was incubated with ^125 I-IL-12 for 2 hrs at RT and IL-12R bound radioactivity was determined in the presence of 50 nM unlabelled IL-12.
To confirm that the antibodies identified by the immunoprecipitation assay were specific for IL-12R, an immunoprecipitation/soluble IL-12R binding assay was developed. […] Following this incubation, the beads were pelleted, washed twice with IP buffer and the bound radioactivity determined in a gamma counter. Nonspecific binding was determined by inclusion of 70 nM unlabeled human IL-12 in the assay. Solubilized IL-12R binding data were analyzed according to the method of Scatchard, (Assn. N.Y. Acad. Sci., 51, 660 (1949)) by using the nonlinear regression programs EBDA and Ligand as adapted for the IBM PC by McPherson, from Elsevier-BIOSOFT.

IL-12R [2] = molecular target: T2, IL-12R (Homo sapiens, UniProt P42701); test: Steady state 125I-IL-12 binding to human cells (Scatchard); parameters: human cells that naturally express IL-12R; endogenous in cells; receptor-negative PBMC, MRC-5, HL-60; conditions: PHA-activated PBMCs, Kit-225 and Kit 225/K6 cells; third (low affinity) site
IL-12 receptor = test: as above
[3] = molecular target: T3, human recombinant IL-12 receptor β subunit (Homo sapiens, UniProt P42701); test: Equilibrium binding of 125I-IL-12 and 125I-2*4E6 to recombinant IL-12R expressed in COS cells
T3 construct: expressed in transfected cells; host or cells: COS / COS-7 cells
Description: COS cells (4-5×10^7) were transfected by electroporation with 25 μg of plasmid DNA expressing recombinant human IL-12R (Chua, et al., J. Immunol., 153:128 (1994)) in a BioRad Gene Pulser (250 μF, 250 volts) according to the manufacturer's protocol. The cells were plated in a 600 cm^2 culture plate, harvested after 72 hours by scraping, washed and resuspended in binding buffer. Transfected cells (8×10^4) were incubated with increasing concentrations of ^125 I-labeled 2*4E6 or IL-12 at room temperature for 2 hrs. Cell bound radioactivity was separated from free ^125 I-labeled 2*4E6 or IL-12 as described above.

IL-12R [4] = molecular target: T2, IL-12R; test: Inhibition of 125I-2*4E6 binding to cells by unlabeled competitor; parameters: endogenous in cells; host or cells: Kit 225/K6 cells; conditions: PHA-activated PBMCs (FIG. 6)
Excerpt: The data are expressed as the amount of ^125 I-2*4E6 bound [CPM BOUND (Percent)] to the cells in the presence of the indicated concentrations of unlabeled antibody or IL-12 when compared with the total specific binding in the absence of unlabeled competitor.

Kd [1]: 0.188 nM | Kd (IL-12R [2]): 2 to 6 nM | Kd ([3]; rIL-12R β-expressing COS cells, read-out: apparent affinity of 125I-IL-12, single binding site): 2 to 6 nM | 125I-IL-12 sites/cell ([3]; rIL-12R-expressing COS cells): approximately 150,000 sites/cell | block of 125I-2*4E6 binding by unlabeled competitor (IL-12R [4]): does not block
Substance: IL-12: 75-kDa heterodimeric cytokine of disulfide-bonded 40-kDa and 35-kDa subunits
IL-12 BINDING (KD, Sites/cell) (IL-12 receptor; HL-60): none detectable | IL-12 BINDING (KD, Sites/cell) (IL-12 receptor; MRC-5): none detectable | IL-12 BINDING (KD, Sites/cell) (IL-12 receptor; RAJI cells): none detectable | Kd (IL-12 receptor; YT cells, 2 sites): 0.109 nM | IL-12 BINDING (KD, Sites/cell) (IL-12 receptor; non-activated human PBMC): none detected
